Marks after values point to notes of the source that are not given here.
How the values were obtained:
[1] = test system: H. pylori; test: Protective oral immunization and challenge with live H. pylori, quantitative urease assay and bacterial colony counts of gastric tissue; format: in vivo, C57BL/6 mice
Experimental: A murine model of H. pylori infection was produced by infection of C57BL/6 mice with H. pylori Sydney strain SS1 and was used to assess the efficacy of recombinant H. pylori vac36. […] Dose-response studies have shown 100% infection rates of inbred C57BL/6 and Balb/C mice at 8 weeks post-challenge with a single inoculation of […] organisms.
The presence of H. pyloriorganisms in gastric tissue was determined by culture of gastric tissue and by a quantitative urease assay. In the latter method, a longitudinal segment of antrum, representing approximately ¼ of the total antral region was placed in 1 ml of urea broth. After 4 hr, the extent of color change resulting from urea hydrolysis and increased pH was quantiated by spectrophotometric measurement of A550 (Fox et al., Immunol. 88:400-406, 1996). The assay sensitivity is ˜10^3 H. pylori organisms. A positive (H. pylori-infected) gastric tissue was defined as that sample showing 2 standard deviations above the mean A550 value derived from a group of unchallenged uninfected age-matched control mice.
(§1) Protective activity of purified recombinant H. pylori vac36 (SEQ ID NO: 5146) antigen The ability of purified recombinant vac36 (SEQ ID NO: 5146) antigen derived from H. pylori to interfere with the establishment of an H. pylori infection was examined in mice. […]. The mice were challenged 2 weeks later on 3 consecutive days by oral administration of 10^8 H. pylori organisms. The experiment was terminated 2 weeks post-challenge, and the H. pylori infection level assessed by bacterial colony counts and by quantitative urease assays.

[2] = test system: CD4+ or CD8+ T cells and IgA containing (IgACC) plasma cells in gastric tissue; test: Local gastric immune response to immunization, immunostaining of gastric cryosections; format: in vivo, C57BL/6 mice
From the text: Longitudinal sections of gastric tissues from the esophageal to the duodenal junction were embedded in OCT embedding compound, frozen in liquid nitrogen, and cryosections immunostained with monoclonal antibodies recognizing CD4^+ or CD8^+T cells or with antisera against mouse IgA for identification of IgA containing (IgACC) plasma cells (Pappo et al., Infect. Immun. 63:1246-1252, 1995). The degree of local gastric immune response was expressed quantitatively as the number of CD4^+, CD8^+ or IgACC cells per mm^2 of gastric region examined.
as §1

[3] = test system: H. pylori (strain AH244); format: in vivo; settings: BALB/c mice infected with strain AH244, 100 μg antigen + 10 μg CT orally, compared to control; FIGS. 3 and 4
[4] = molecular target: T1, H. pylori peptidyl-propyl cis-trans isomerase (PPIase) (Helicobacter pylori, UniProt Q9ZJH5); test: PPIase enzymatic assay, α-chymotrypsin coupled, succinyl-Ala-Ala-Pro-Phe-p-nitroanilide; format: biochemical
T1 construct: His-Tag (N); made in house; host or cells: E. coli BL21(DE3)
T1 sequence (Q9ZJH5 whole entry, looked up): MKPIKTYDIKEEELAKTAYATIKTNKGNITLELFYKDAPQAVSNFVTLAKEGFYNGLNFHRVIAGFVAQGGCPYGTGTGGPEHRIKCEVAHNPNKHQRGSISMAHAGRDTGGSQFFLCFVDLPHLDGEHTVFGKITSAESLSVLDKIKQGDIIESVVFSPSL
From the text: The assay is essentially as described by Fisher (Fischer, G., et. al. (1984) Biomed. Biochim. Acta 43:1101-1111). The assay measures the cis-trans isomerization of the Ala-Pro bond in the test peptide N-succinyl-Ala-Ala-Pro-Phe-p-nitroanilide (Sigma # S-7388, lot # 84H5805). The assay is coupled with α-chymotrypsin, where the ability of the protease to cleave the test peptide occurs only when the Ala-Pro bond is in trans. The conversion of the test peptide to the trans isomer in the assay is followed at 390 nm on a Beckman Model DU-650 spectophotometer. The data are collected every second with an average scanning of time of 0.5 second. Assays are carried out in 35 mM Hepes, pH 8.0, in a final volume of 400 ul, with 10 μM α-chymotrypsin (type 1-5 from bovine Pancreas, Sigma # C-7762, lot 23H7020) and 10 nM PPIase. To initiate the reaction, 10 μl of the substrate (2 mM N-Succinyl-Ala-Ala-Pro-Phe-p-nitroanilide in DMSO) is added to 390 μl of reaction mixture at room temperature.
The PPIase activity was assayed using the chromogenic tetrapeptide substrate succinyl-Ala-Ala-Pro-Phe-p-nitroanilide. An initial velocity of 4.9 μmole/min/mg protein was measured with the purified enzyme (FIG. 5). This corresponds to a kcat of 1.6 sec^−1 which is similar to the one obtained for the E. coli PPIase (Liu, J. and Walsh, C. T. (1990) Proc. Natl. Acad. Sci. USA 87:4028-4032) and the one from porcine kidney (Fischer, G. (1989) Nature 337:476-478).
The recombinant protein has a high catalytic efficiency of 2.06×10^9 M^−1 s^−1 when the assay is measured at 25° C. These values are one to two orders of magnitude higher than that observed for other characterized PPIases. However, in those studies, the ppiase assay was conducted at 10° C., which may account for the discrepency.

[5] = mean number of cells/mm^2 of gastric region ± SEM, immunized mice upon challenge with H. pylori

B1: vac36: recombinant H. pylori outer membrane protein with terminal phenylalanine residue and C-terminal tyrosine cluster, aa SEQ ID NO: 5146, nt SEQ ID NO: 384 (protein, listed as Helicobacter pylori)
chain: MKQNLKPFKMIKENLMTQSQKVRFLAPLSLALSLSFNPVGAEEDGGFMTFGYELGQVVQQVKNPGKIKAEELAGLLNSTTTNNTNINIAGTGGNVAGTLGNLFMNQLGNLIDLYPTLKTNNLHQCGSTNSGNGATAAAATNNSPCFQGNLALYNEMVDSIKTLSQNISKNIFQGDNNTTSANLSNQLSELNTASVYLTYMNSFLNANNQAGGIFQNNTNQAYENGVTAQQIAYVLKQASITMGPSGDSGAAGAFLDAALAQHVFNSANAGNDLSAKEFTSLVQNIVNNSQNALTLANNANISNSTGYQVSYGGNIDQARSTQLLNNTTNTLAKVTALNNELKANPWLGNFAAGNSSQVNAFNGFITKIGYKQFFGENKNVGLRYYGFFSYNGAGVGNGPTYNQVNLLTYGVGTDVLYNVFSRSFGSRSLNAGFFGGIQLAGDTYISTLRNSPQLASRPTATKFQFLFDVGLRMNFGILKKDLKSHNQHSIEIGVQIPTIYNTYYKAGGAEVKYFRPYSVYWVYGYAF
modifications: misc_feature (B) LOCATION 1...527; hypothetical: YES
level of colonization by H. pylori, as assessed by gastric urease activity and bacterial count assays ([1]; C57BL/6 mice immunized orally, challenged with live H. pylori): significantly lower level of colonization
H. pylori burden ([1]; bacterial counts in gastric tissue, mean ± SEM, oral immunization 4 times weekly with 10 μg CT, challenge with 10^8 H. pylori, 2 weeks post-challenge): 55,800 ± 12,599 colony forming units
Urease Activity ([1]; mean A550 ± SEM of duplicate antral samples, n = 10 mice/group, oral immunization 4 times weekly with 10 μg CT, challenge with 10^8 H. pylori, 2 weeks post-challenge): 0.199 ± 0.080 A550
numbers of CD4+ T cells and of IgACC recruited in the gastric tissues ([2]; compared with unimmunized H. pylori-infected mice): Greater numbers
CD4+ antrum [2, 5]: 31 ± 8 cells/mm^2
CD4+ cardia [2, 5]: 33 ± 9^a cells/mm^2
CD4+ corpus [2, 5]: 54 ± 8 cells/mm^2
CD8+ antrum [2, 5]: 1 ± 1 cells/mm^2
CD8+ cardia [2, 5]: 3 ± 2 cells/mm^2
CD8+ corpus [2, 5]: 0 cells/mm^2
IgACC antrum [2, 5]: 67 ± 13 cells/mm^2
IgACC cardia [2, 5]: 24 ± 12 cells/mm^2
IgACC corpus [2, 5]: 79 ± 16 cells/mm^2

B2: SEQ ID NO: 677: H. pylori antigen of the therapeutic immunization study; number does not match the antigen list of Tables 6 and 7 (protein, listed as Helicobacter pylori)
chain: SDCMALLEIIHYPSKILRTISKEVVSFDSKLHQQLDDMHETMIASEGIGLAAIQVGLPLRMLIINLPQEDGVQHKEDCLEIINPKWIETKGSIMYREGCLSVPGFYEEVERFEKVKIEYQNRFAEVKILEASELLAVAIQHEIDHLNGVLFVDKLSILKRKKFEKELKELQKKQKHK
modifications: double-stranded, circular; misc_feature (B) LOCATION 1...531; hypothetical: NO; anti-sense: NO
reduction and/or eradication of the H. pylori infection (therapeutic immunization effect) [3]: did not differ from control

B3: SEQ ID NO: 880: H. pylori antigen of the therapeutic immunization study; number does not match the antigen list of Tables 6 and 7 (protein, listed as Helicobacter pylori)
chain: YPCHKRFSLTHSQKESPQSNSPKGVKITLILVRKFKTPSINTLSNKIAIIITCCFLSESVKLLGYSGLKNFRILRMLETSSHFLKSFRLKRYIGFLLISLALLITPFVRIDGAHLFLISFEHKQLHFLGKNL
modifications: double-stranded, circular; misc_feature (B) LOCATION 1...396; hypothetical: NO; anti-sense: NO
degree of colonization of the antrum [3]: lower

B4: H. pylori PPIase: recombinant PPI from H. pylori expressed in E. coli using pET-28b (protein)
chain: FIAIIEHLNDKSLSQRFMMKPIKTYDIKEEELAKTAYATIKTNKGNITLELFYKDAPQAVSNFVTLAKEGFYNGLNFHRVIAGFVAQGGCPYGTGTGGPEHRIKCEVAHNPNKHQRGSISMAHAGRDTGGSQFFLCFVDLPHLDGEHTVFGKITSAESLSVLDKIKQGDIIESVVFSPSL
modifications: left off: small tags and cut ends
notes: recombinant PPI from H. pylori expressed in E. coli using pET-28b
catalytic efficiency ([4]; assay measured at 25° C.): 2.06e+09 M⁻¹ s⁻¹
kcat ([4]; purified recombinant enzyme): 1.6 s⁻¹
initial velocity ([4]; purified recombinant enzyme, substrate succinyl-Ala-Ala-Pro-Phe-p-nitroanilide): 4.9 μmole/min/mg protein

B5: SEQ ID NO: 465: H. pylori antigen of the therapeutic immunization study; number does not match the antigen list of Tables 6 and 7 (protein, listed as Helicobacter pylori)
chain: MGCSFIFKKVRVYSKMLVALGLSSVLIGCAMNPSAETKKPNDAKNQQPVQTHERMTTSSEHVTPLDFNYPVHIVQAPQNHHVVGILMPRIQVSDNLKPYIDKFQDALINQIQTIFEKRGYQVLRFQDEKALNVQDKKKIFSVLDLKGWVGILEDLKMNLKDSHSPI
modifications: double-stranded, circular; misc_feature (B) LOCATION 1...498; hypothetical: NO; anti-sense: NO
reduction and/or eradication of the H. pylori infection (therapeutic immunization effect) [3]: did not differ from control

Reference: patent publication US20040052799A1, “Nucleic acid and amino acid sequences relating to Helicobacter pylori for diagnostics and therapeutics” (Astra Aktiebolag, priority 1996, published 2004)
